Experimental data published in article doi:10.1101/481457 (bioRxiv, 2019).

Target: T1, CBP Full-HAT domain (central core catalytic region), 6His-tagged (mouse, UniProt P45481 1096-1700)
T1 sequence (looked up): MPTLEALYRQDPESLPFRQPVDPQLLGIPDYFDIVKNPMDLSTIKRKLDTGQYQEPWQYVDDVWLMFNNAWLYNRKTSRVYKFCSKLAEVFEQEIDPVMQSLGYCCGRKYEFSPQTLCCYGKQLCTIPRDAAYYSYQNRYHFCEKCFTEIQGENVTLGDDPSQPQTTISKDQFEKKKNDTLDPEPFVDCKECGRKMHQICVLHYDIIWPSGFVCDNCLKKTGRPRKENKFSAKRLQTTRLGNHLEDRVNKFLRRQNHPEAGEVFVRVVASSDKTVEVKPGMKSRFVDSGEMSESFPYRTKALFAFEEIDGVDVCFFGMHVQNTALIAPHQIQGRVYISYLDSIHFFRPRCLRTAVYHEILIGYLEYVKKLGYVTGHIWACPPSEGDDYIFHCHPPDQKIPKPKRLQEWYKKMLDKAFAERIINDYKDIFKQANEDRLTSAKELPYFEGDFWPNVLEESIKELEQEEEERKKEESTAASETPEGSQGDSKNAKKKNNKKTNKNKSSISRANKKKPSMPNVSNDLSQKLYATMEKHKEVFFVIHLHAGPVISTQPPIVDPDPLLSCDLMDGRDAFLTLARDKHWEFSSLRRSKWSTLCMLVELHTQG
Assay: BLI

Kd: 1 nM
B1: biotinylated recombinant full-length HSF2 (natural protein, UniProt Q03933 1-536, looked up)
chain: MKQSSNVPAFLSKLWTLVEETHTNEFITWSQNGQSFLVLDEQRFAKEILPKYFKHNNMASFVRQLNMYGFRKVVHIDSGIVKQERDGPVEFQHPYFKQGQDDLLENIKRKVSSSKPEENKIRQEDLTKIISSAQKVQIKQETIESRLSELKSENESLWKEVSELRAKHAQQQQVIRKIVQFIVTLVQNNQLVSLKRKRPLLLNTNGAQKKNLFQHIVKEPTDNHHHKVPHSRTEGLKPRERISDDIIIYDVTDDNADEENIPVIPETNEDVISDPSNCSQYPDIVIVEDDNEDEYAPVIQSGEQNEPARESLSSGSDGSSPLMSSAVQLNGSSSLTSEDPVTMMDSILNDNINLLGKVELLDYLDSIDCSLEDFQAMLSGRQFSIDPDLLVDLFTSSVQMNPTDYINNTKSENKGLETTKNNVVQPVSEEGRKSKSKPDKQLIQYTAFPLLAFLDGNPASSVEQASTTASSEVLSSVDKPIEVDELLDSSLDPEPTQSKLVRLEPLTEAEASEATLFYLCELAPAPLDSDMPLLDS
modifications: biotinylated with EZ-Link NHS-PEG4-Biotin at a molar ratio biotin/protein 3:1
